{"source": "patent US20030105283A1", "binders": {"B1": {"name": "purified antigenic protein MF-2 (protein)", "chain": "EIGSTIPNATFAYVPYSPELEDHKVCGMPTSFQSHERWKGKKVVIVAVPGAFTPTCTANHVPPYVEKIQELKSKGVDEVVVISANDPFVLSAWGITEHAKDNLTFAQDVNCEFSKHFNATLDLSSKGMGLRTARYALIANDLKVEYFGIDEGEPKQSSAATVLSKL", "modifications": "N-terminus blocked"}, "B2": {"name": "purified antigenic protein MF-1 (protein)", "chain": "PGDPTATAKGNEIPDTLMGYIPWTPELDSGEVCGIPTTFKTRDEWKGKKVVIVSIPGAYTPICHQQHIPPLVKRVDELKAKGVDAVYVIASNDPFVMAAWGNFNNAKDKVVFATDIDLAFSKALGATIDLSAKHFGERTARYALIIDDNKIVDFASDEGDTGKLQNASIDTILTKV"}}, "key": {"[1]": {"target": "IgE antibodies in pooled sera from patients (collection of sera from 10 patients showing high values in RAST method)", "test": "RAST cross inhibition, pooled patient sera; competitor: MF-2 immobilised on solid phase"}, "[2]": {"target": "IgE antibodies in pooled sera from patients (collection of sera from 10 patients showing high values in RAST method)", "test": "RAST cross inhibition, pooled patient sera; competitor: MF-1 immobilised on solid phase"}, "[3]": {"target": "IgE antibodies in pooled sera from patients (collection of sera from 10 patients showing high values in RAST method)", "test": "RAST cross inhibition, pooled patient sera; competitor: MF-4 immobilised on solid phase"}}}
{"binder": "B1", "values": [{"measurement": "IC50", "setting": "[1]", "result": 0.013, "unit": "µg/mL"}, {"measurement": "relative concentration for 50% inhibition (in brackets; homologous antigen = 1)", "setting": "[1]", "result": 1}, {"measurement": "IC50", "setting": "[2]", "result": 8.6, "unit": "µg/mL"}, {"measurement": "relative concentration for 50% inhibition (in brackets; homologous antigen = 1)", "setting": "[2]", "result": 230}, {"measurement": "IC50", "setting": "[3]", "result": 30, "unit": "µg/mL"}, {"measurement": "relative concentration for 50% inhibition (in brackets; homologous antigen = 1)", "setting": "[3]", "result": 480}]}
{"binder": "B2", "values": [{"measurement": "IC50", "setting": "[1]", "result": "> 100", "unit": "µg/mL"}, {"measurement": "relative concentration for 50% inhibition (in brackets; homologous antigen = 1)", "setting": "[1]", "result": "> 7700"}, {"measurement": "IC50", "setting": "[2]", "result": 0.038, "unit": "µg/mL"}, {"measurement": "relative concentration for 50% inhibition (in brackets; homologous antigen = 1)", "setting": "[2]", "result": 1}, {"measurement": "IC50", "setting": "[3]", "result": 18, "unit": "µg/mL"}, {"measurement": "relative concentration for 50% inhibition (in brackets; homologous antigen = 1)", "setting": "[3]", "result": 290}]}
